What follows are sequences tested on Escherichia coli TOP10 (assay: shrunken log2 fold change of peptide-encoding DNA abundance (4.5 h post-induction vs induction); higher = less antimicrobial activity (less host growth inhibition)). Conditions: time post-induction: 4.5 h; library: site-saturation at positions 5, 18, 19, 20.
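Note: peptides expressed intracellularly from a pBAD plasmid library in pooled LB shake-flask culture, induced with 0.3% L-arabinose, DNA abundance read by NGS, three biological replicates, DESeq2 with apeglm shrinkage.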

Row | Sequence | shrunken log2 fold change
1 | RRIRERPPRLPRPRPRPINLPRP | -0.338
2 | RRIRERPPRLPRPRPRPIQCPRP | 0.0885
3 | RRIRERPPRLPRPRPRPIQYPRP | -0.163
4 | RRIRERPPRLPRPRPRPISQPRP | -0.058
5 | RRIRERPPRLPRPRPRPITIPRP | -0.0388
6 | RRIRERPPRLPRPRPRPIVTPRP | -0.158
7 | RRIRERPPRLPRPRPRPIYGPRP | 0.0231
8 | RRIRERPPRLPRPRPRPKACPRP | 0.0288
9 | RRIRERPPRLPRPRPRPKDNPRP | -0.342
10 | RRIRERPPRLPRPRPRPKEFPRP | -0.11
11 | RRIRERPPRLPRPRPRPKFMPRP | -0.293
12 | RRIRERPPRLPRPRPRPKFNPRP | -0.558
13 | RRIRERPPRLPRPRPRPKGPPRP | 0.0237
14 | RRIRERPPRLPRPRPRPKIIPRP | 0.357
15 | RRIRERPPRLPRPRPRPKITPRP | -0.514
16 | RRIRERPPRLPRPRPRPKKEPRP | -0.0367
17 | RRIRERPPRLPRPRPRPKKIPRP | -0.515
18 | RRIRERPPRLPRPRPRPKKPPRP | 0.507
19 | RRIRERPPRLPRPRPRPKLEPRP | -0.0117
20 | RRIRERPPRLPRPRPRPKLFPRP | -0.0593
21 | RRIRERPPRLPRPRPRPKLGPRP | 0.12
22 | RRIRERPPRLPRPRPRPKLHPRP | -0.0464

Row | Sequence | shrunken log2 fold change
23 | RRIRERPPRLPRPRPRPKLLPRP | 0.0473
24 | RRIRERPPRLPRPRPRPKLTPRP | 0.21
25 | RRIRERPPRLPRPRPRPKMVPRP | -0.22
26 | RRIRERPPRLPRPRPRPKMWPRP | -0.0633
27 | RRIRERPPRLPRPRPRPKNFPRP | -0.311
28 | RRIRERPPRLPRPRPRPKNNPRP | -0.464
29 | RRIRERPPRLPRPRPRPKRDPRP | 0.024
30 | RRIRERPPRLPRPRPRPKRFPRP | -0.0239
31 | RRIRERPPRLPRPRPRPKSNPRP | -0.472
32 | RRIRERPPRLPRPRPRPKSVPRP | -0.00947
33 | RRIRERPPRLPRPRPRPKTPPRP | 0.0131
34 | RRIRERPPRLPRPRPRPKVYPRP | -0.126
35 | RRIRERPPRLPRPRPRPKYEPRP | -0.303
36 | RRIRERPPRLPRPRPRPKYLPRP | -0.77
37 | RRIRERPPRLPRPRPRPKYWPRP | -0.202
38 | RRIRERPPRLPRPRPRPLADPRP | -0.14
39 | RRIRERPPRLPRPRPRPLGFPRP | -0.118
40 | RRIRERPPRLPRPRPRPLIKPRP | -0.12
41 | RRIRERPPRLPRPRPRPLIVPRP | -0.632
42 | RRIRERPPRLPRPRPRPLKRPRP | -0.28
43 | RRIRERPPRLPRPRPRPLLMPRP | 0.0107
44 | RRIRERPPRLPRPRPRPLMPPRP | -0.119

Row | Sequence | shrunken log2 fold change
45 | RRIRERPPRLPRPRPRPLPAPRP | 0.065
46 | RRIRERPPRLPRPRPRPLPDPRP | -0.0462
47 | RRIRERPPRLPRPRPRPLPTPRP | -0.0242
48 | RRIRERPPRLPRPRPRPLRPPRP | 0.889
49 | RRIRERPPRLPRPRPRPLSCPRP | 0.075
50 | RRIRERPPRLPRPRPRPLSRPRP | 0.00391
51 | RRIRERPPRLPRPRPRPLTNPRP | -0.242
52 | RRIRERPPRLPRPRPRPLVNPRP | -0.456
53 | RRIRERPPRLPRPRPRPLYRPRP | -0.474
54 | RRIRERPPRLPRPRPRPLYYPRP | -0.694
55 | RRIRERPPRLPRPRPRPMAHPRP | -0.0343
56 | RRIRERPPRLPRPRPRPMAQPRP | 0.00812
57 | RRIRERPPRLPRPRPRPMCAPRP | 0.000297
58 | RRIRERPPRLPRPRPRPMCTPRP | 0.107
59 | RRIRERPPRLPRPRPRPMDKPRP | -0.219
60 | RRIRERPPRLPRPRPRPMDQPRP | -0.00192
61 | RRIRERPPRLPRPRPRPMEIPRP | -0.221
62 | RRIRERPPRLPRPRPRPMHYPRP | -0.0285
63 | RRIRERPPRLPRPRPRPMIRPRP | 0.0011
64 | RRIRERPPRLPRPRPRPMKQPRP | -0.0573
65 | RRIRERPPRLPRPRPRPMLKPRP | -0.292
66 | RRIRERPPRLPRPRPRPMPDPRP | 0.17

Row | Sequence | shrunken log2 fold change
67 | RRIRERPPRLPRPRPRPMPQPRP | -0.201
68 | RRIRERPPRLPRPRPRPMQPPRP | -0.0115
69 | RRIRERPPRLPRPRPRPMRFPRP | -0.0231
70 | RRIRERPPRLPRPRPRPMRHPRP | 0.0434
71 | RRIRERPPRLPRPRPRPMSIPRP | -0.239
72 | RRIRERPPRLPRPRPRPMTVPRP | -0.124
73 | RRIRERPPRLPRPRPRPMVMPRP | -0.368
74 | RRIRERPPRLPRPRPRPMWTPRP | -0.306
75 | RRIRERPPRLPRPRPRPMYMPRP | -0.0017
76 | RRIRERPPRLPRPRPRPNAHPRP | 0.0249
77 | RRIRERPPRLPRPRPRPNAYPRP | -0.0628
78 | RRIRERPPRLPRPRPRPNCQPRP | -0.0295
79 | RRIRERPPRLPRPRPRPNCTPRP | -0.102
80 | RRIRERPPRLPRPRPRPNCYPRP | -0.342
81 | RRIRERPPRLPRPRPRPNDFPRP | -0.0161
82 | RRIRERPPRLPRPRPRPNDIPRP | 0.0203
83 | RRIRERPPRLPRPRPRPNDTPRP | -0.348
84 | RRIRERPPRLPRPRPRPNEFPRP | -0.0497
85 | RRIRERPPRLPRPRPRPNFSPRP | -0.114
86 | RRIRERPPRLPRPRPRPNGAPRP | 0.0556
87 | RRIRERPPRLPRPRPRPNHAPRP | -0.239
88 | RRIRERPPRLPRPRPRPNHPPRP | -0.278

Row | Sequence | shrunken log2 fold change
89 | RRIRERPPRLPRPRPRPNIFPRP | -0.302
90 | RRIRERPPRLPRPRPRPNKPPRP | -0.0937
91 | RRIRERPPRLPRPRPRPNMFPRP | -0.615
92 | RRIRERPPRLPRPRPRPNMPPRP | -0.706
93 | RRIRERPPRLPRPRPRPNNHPRP | -0.933
94 | RRIRERPPRLPRPRPRPNNPPRP | -0.736
95 | RRIRERPPRLPRPRPRPNPNPRP | -0.365
96 | RRIRERPPRLPRPRPRPNPWPRP | -0.0758
97 | RRIRERPPRLPRPRPRPNQRPRP | -0.0506
98 | RRIRERPPRLPRPRPRPNRSPRP | -0.0779
99 | RRIRERPPRLPRPRPRPNSCPRP | -0.128
100 | RRIRERPPRLPRPRPRPNTYPRP | -0.667
101 | RRIRERPPRLPRPRPRPNVFPRP | -0.189
102 | RRIRERPPRLPRPRPRPNVWPRP | 0.133
103 | RRIRERPPRLPRPRPRPNYSPRP | -0.63
104 | RRIRERPPRLPRPRPRPPCDPRP | -0.187
105 | RRIRERPPRLPRPRPRPPFSPRP | -0.241
106 | RRIRERPPRLPRPRPRPPHEPRP | 0.731
107 | RRIRERPPRLPRPRPRPPIFPRP | -0.0515
108 | RRIRERPPRLPRPRPRPPILPRP | -0.471
109 | RRIRERPPRLPRPRPRPPISPRP | 0.0892

From the supplement of paper PMC9112550, “Optimization of the antimicrobial peptide Bac7 by deep mutational scanning” (BMC Biology, 2022)
